In patent US20120190616A1 (IPSEN PHARMA S A S, published 2012) one finds IC50 data, which are given here for five molecules.

Positions count from the first letter of the chain named.

First the molecules themselves.
B1: (Asn^59, Thr^63, des-Leu^64, des-Lys^65, Glu^70)hIGF-1(1-70)-OH (ligand)
chain: GPETLCGAELVDALQFVCGDRGFYFNKPTGYGSSSRRAPQTGIVDECCFRSCDLRRLENYCATPAKSE
notes: synthetic; Leu64 and Lys65 deleted; free acid C-terminus; disulfides 6-48, 47-52, 18-61
B2: (Pro^27, Lys^28, Asn^59)hIGF-1(1-62)-OH (ligand)
chain: GPETLCGAELVDALQFVCGDRGFYFNPKTGYGSSSRRAPQTGIVDECCFRSCDLRRLENYCA
notes: synthetic; free acid C-terminus
B3: (Arg^27,65,68, Leu^59)hIGF-1(1-70)-OH (ligand)
chain: GPETLCGAELVDALQFVCGDRGFYFNRPTGYGSSSRRAPQTGIVDECCFRSCDLRRLELYCAPLRPARSA
notes: synthetic; free acid C-terminus; disulfides 6-48, 47-52, 18-61
B4: (Leu^59, Arg^65,68)hIGF-1(1-70)-OH (ligand)
chain: B3 chain with R27K
notes: as for B3
B5: (Pro^27, Lys^28, Asn^59)hIGF-1(1-70)-OH (ligand)
chain: B3 chain with R27P, P28K, L59N, R65K, R68K
notes: as for B3

For the test, the target named is T1, native IGF-1 receptor of human MCF-7 cells (human, UniProt P08069 31-1367).
T1 construct: whole, on cells; assayed in membranes prepared from MCF-7 cells
Kind of test: radioligand competition, [125I]IGF-1 on MCF-7 cell membranes. Here is the method: The homogenates were washed twice by centrifugation (39,000 g/10 minutes) and the final pellets were resuspended in 50 mM Tris-HCl containing 2.5 mM MgCl₂ and 0.1% BSA.
Unlabeled competing test peptides were sometimes included. The final assay volume was 0.25 ml. […] The supernatant was decanted and the radioactive particles trapped in the pellet was counted by gamma spectrometry (Wallac LKB, Gaithersburg, Md., USA).
In turn, B1 returned an IC50 of 19 nM. Consider B2, for which the half-inhibitory concentration (IC50) amounted to 1.14 nM. As for B3, the IC50 is 2.69 nM. Molecule B4 gave a half-maximal inhibitory concentration (IC50) of 2.89 nM. Consider B5, for which the IC50 came to 0.88 nM.
